For 1 substance, Kd results are on record in patent publication US20100216693A1, “COMPOSITIONS AND METHODS OF TREATING DIABETES” (priority 2005, published 2010).

For experiment [1], the target named is Human insulin (Actrapid) (human). Nature of the experiment: SPR (Biacore 3000), insulin 0.25-10 µM over C-terminally immobilized insulin; global fit, analyte with two sites competing for one site on the chip; slow off rate. (In general: In SPR one partner is held on a chip, and binding of the other changes the refractive index at the surface.)
Experiment [2] shares this target. Briefly: SPR (Biacore 3000), insulin 0.25-10 µM over C-terminally immobilized insulin; global fit, analyte with two sites competing for one site on the chip; rapid off rate.

On to “Human insulin (Actrapid) (ligand; other documents disagree on this pair)”, for which the Kd in experiment [1] worked out at 2.71 µM; in experiment [2] it was 4.65 µM.

For orientation: Kd means the free concentration of one partner at which half of the binding sites on the other are occupied at equilibrium, for simple one-to-one binding. The low end stands for tighter binding, the high end for weaker binding.
